Data reported in patent US20170290925A1, “Conjugates And Conjugating Reagents” (priority 2014, published 2017).
Where a SMILES comes first, the peptide text is derived from it. [ ]: non-standard residue; d: D form. The star is where a group is joined. Dolaproine = CO[C@@H]([C@@H]1CCCN1)[C@@H](C)C(=O)O; Dil = CC[C@H](C)[C@H](NC)[C@@H](CC(=O)O)OC; X1 = C[C@@H](N*)[C@@H](O)c1ccccc1; NMeV = CN[C@H](C(=O)O)C(C)C

Assays:
[1] = system: CD30-positive Karpas 299 cell line; assay: In vitro cell viability assay (CellTiter Glo) in Karpas 299; assay type: cell-based, human; details: Karpas 299 cells, 72 h incubation, conjugates DAR 4
Protocol: Purified brentuximab drug conjugates 10 and 11 with a drug to antibody ratio (DAR) of four as described in Example 6, were evaluated in vitro by measuring the inhibitory effect on cell growth of (CD30)-positive cell line Karpas 299 using the method described below.
Loss of tumour cell viability following treatment with cytotoxic drugs or ADCs in vitro can be measured by growing cell lines in the presence of increasing concentrations of drugs or ADCs and quantifying the loss of proliferation or metabolic activity using CellTiter Glo® Luminescence reagent (Promega Corp. Technical Bulletin TB288; Lewis Phillips G. D, Cancer Res 2008; 68:9280-9290). […]
The human T cell lymphoma cell line Karpas 299 was obtained from Dr Abraham Karpas at the University of Cambridge. […] CD30-positive Karpas 299 were counted using a Neubauer haemocytometer and adjusted to a cell density of 5×10^4/mL. […]
The cell viability assay was carried out using the Cell-Titer Glo® Luminescence reagent, as described by the manufacturer's instructions, (Promega Corp. Technical Bulletin TB288; Lewis Phillips G. D, Cancer Res 2008; 68:9280-9290). […] Luminescence was recorded using a plate reader (e.g. MD Spectramax M3 plate reader), and data subsequently analysed using a four parameter non-linear regression model. […]

[2] = In vivo pharmacokinetics in rats, total (anti-CD30 antibody) ELISA; parameters: species or system Sprague-Dawley rats; details: single dose 7 mg/kg IV, period of 850 h
Protocol: (§1) Brentuximab conjugate 10 was used in this study as the ADC with a pendant PEG group. Brentuximab conjugate 11 was used as a comparator with a non-pendant PEG group.
(§2) In vivo pharmacokinetics in rats. Sprague-Dawley rats (3 rats per group) with an average weight of 200 g were treated with either 10, 11 or Adcetris®, via the tail vein (IV, bolus) at a single dose of 7 mg/kg. Serial sampling of 100 μL blood was performed before dosing and subsequently at 30 min, 24 h, 48 h, 7 d, 14 d and 35 d post-dosing respectively. Plasma was prepared from fresh blood samples and frozen at −80° C. until analysis.
Total (anti-CD30 antibody) ELISA. Total brentuximab antibody content from plasma samples was quantified using ELISA technology. Briefly, Maxisorp™ 96 well plates (Nunc/Fisher) were coated with recombinant human CD30, (Sino Biological Inc, 2.5 μg/mL in diluent) and incubated at 4° C. overnight. Plasma samples were diluted to ensure that the unknown ADCs fell within the linear range of the sigmoidal standard calibration curve. […]
IgG, (Promega) was added to the plate and the samples were incubated for 1 hour at room temperature on a shaker at 350 rpm. […] The assay was stopped with 100 μL of 0.5 M H2SO4 and read at UV λ=[…] using the plate reader. Data were plotted and evaluated in GraphPad Prism 5 and Microsoft Excel.

[3] = In vivo pharmacokinetics in rats, average DAR by CD30 affinity capture and HIC; parameters: species or system Sprague-Dawley rats; details: single dose 7 mg/kg IV, period of 850 h
Protocol: as §1, §2
CD30 affinity capture for average DAR determination Affinity capture was performed using streptavidin coated magnetic beads (Dynabeads-Streptavidin T1, Life Technologies). […] 500 1AL of the plasma sample in PBS was added to the CD30-coated beads and incubated overnight at 4° C. and finally washed using PBS. Captured antibodies were eluted using acidic elution buffer for 5 minutes at 4° C. […] Eluted samples were further mixed with HIC loading buffer and analysed using hydrophobic interaction chromatography with UV detection (HIC-UV).
Hydrophobic interaction chromatography for average DAR determination. Affinity captured ADCs were analysed using hydrophobic interaction chromatography in order to determine the average drug to antibody ratio (DAR). […]

Molecule	IC50 [1] [nM]	Rate of clearance from the circulation (total antibody) [2]	Rate of drug loss from the conjugate (average DAR) [3]
CC[C@H](C)[C@@H]([C@@H](CC(=O)N1CCC[C@H]1[C@H](OC)[C@@H](C)C(=O)N[C@H](C)[C@@H](O)c1ccccc1)OC)N(C)C(=O)[C@@H](NC(=O)[C@@H](NC)C(C)C)C(C)C [MMAE] (H-[NMeV]V[Dil][Dolaproine]-X1)	0.105		
Adcetris®		cleared more quickly	much faster rate of drug dissociation
